Entries after “also recorded” stand apart in the source; their conditions may differ. Like-named read-outs stand apart in the source and are kept apart here.

For orientation: Kd means the constant that tells how readily two partners part at equilibrium.

For experiment [1], the target named is ESR1 Ligand-binding domain tagged with glutathione-S-transferase (human). As to the kind of experiment: AlphaScreen or HTRF. For orientation: Alpha assays give light when donor and acceptor beads are brought close together.
Experiment [2] deals with T1, ESR1 ligand-binding domain (GST-ER LBD) / SRC-3 peptides (Homo sapiens, UniProt P03372).
T1 sequence (P03372 311-547 limits assumed): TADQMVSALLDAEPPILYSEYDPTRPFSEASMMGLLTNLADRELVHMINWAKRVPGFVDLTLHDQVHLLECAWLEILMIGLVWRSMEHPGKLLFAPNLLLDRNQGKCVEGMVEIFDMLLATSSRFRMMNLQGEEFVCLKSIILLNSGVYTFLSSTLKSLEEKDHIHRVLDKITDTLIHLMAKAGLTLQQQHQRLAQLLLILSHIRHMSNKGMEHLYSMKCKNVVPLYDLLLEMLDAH
As to the kind of experiment: TR-FRET co-activator peptide recruitment assay, SRC-3 peptides. In kind it is biochemical. The note with it: all SRC-3 peptides tested; listed as BPA. Background: TR-FRET usually uses a lanthanide donor and a delayed reading to cut background.

The target in experiment [3] is T2, human estrogen receptor alpha ligand binding domain (ESR1-LBD) (Homo sapiens, UniProt P03372).
T2 sequence (P03372 311-547 limits assumed): T1 sequence (P03372 311-547 limits assumed)
Put plainly: Fluorescence polarization competitive ligand binding assay. Particulars: relative binding affinity calculated from IC50, E2 set at 100%.

The target of experiment [4] is SRC-1 RID (Homo sapiens) (UniProt Q15788). The note with it: cited from earlier work.
The target is the same in experiment [5]. The note with it: cited from earlier work. This is another data set of the same source.
For experiment [6], the target named is T3, ESR1 (Homo sapiens, UniProt P03372).
T3 sequence (P03372 311-547 limits assumed): T1 sequence (P03372 311-547 limits assumed)
Put plainly: Direct. Particulars: read-out: binding affinity (Kd) for the ESR1–Fl-E1 complex; saturation binding curves (data not shown).

ESR1, sequence (P03372 whole entry): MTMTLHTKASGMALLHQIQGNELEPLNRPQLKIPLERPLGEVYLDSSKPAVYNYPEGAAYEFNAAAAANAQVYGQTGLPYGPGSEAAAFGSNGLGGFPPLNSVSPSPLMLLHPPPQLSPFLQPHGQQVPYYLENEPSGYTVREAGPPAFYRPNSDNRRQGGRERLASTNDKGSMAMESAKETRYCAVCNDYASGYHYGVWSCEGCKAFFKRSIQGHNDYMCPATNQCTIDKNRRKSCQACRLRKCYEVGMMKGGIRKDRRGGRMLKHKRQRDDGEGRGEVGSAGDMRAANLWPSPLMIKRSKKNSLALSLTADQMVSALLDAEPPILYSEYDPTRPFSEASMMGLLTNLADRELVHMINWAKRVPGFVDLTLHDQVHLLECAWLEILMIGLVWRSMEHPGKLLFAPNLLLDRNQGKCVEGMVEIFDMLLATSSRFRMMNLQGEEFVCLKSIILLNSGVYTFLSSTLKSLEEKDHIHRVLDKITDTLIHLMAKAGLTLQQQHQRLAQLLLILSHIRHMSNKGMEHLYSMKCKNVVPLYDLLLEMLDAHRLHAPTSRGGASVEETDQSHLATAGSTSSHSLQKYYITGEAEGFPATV
SRC-1 RID (Homo sapiens), sequence (Q15788 570-780): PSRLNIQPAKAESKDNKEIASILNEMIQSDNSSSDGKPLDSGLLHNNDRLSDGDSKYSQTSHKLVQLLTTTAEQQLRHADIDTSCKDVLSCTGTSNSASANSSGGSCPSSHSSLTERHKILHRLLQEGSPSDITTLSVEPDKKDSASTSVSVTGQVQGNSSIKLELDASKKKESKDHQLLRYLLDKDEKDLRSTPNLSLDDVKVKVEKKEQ

In the case of SRC-3(2) peptide, the EC50 of 17β-estradiol for recruitment of the peptide in experiment [1] was found to be 7.19 nM.
Take `CC(C)(c1ccc(O)cc1)c1ccc(O)cc1` [Bisphenol-A, bisphenol-A]: the “recruitment of SRC-3 peptides to ESR1 (in words)” value in experiment [2] is “failed to induce interaction of the receptor with SRC-3 peptides; also recorded: failed to recruit any of the SRC-3 peptides”. Moreover, the RBA in experiment [3] is reported as 0.29%.
As for SRC-3(3) peptide, the EC50 of 17β-estradiol for recruitment of the peptide in experiment [1] amounted to 2.74 nM.
With ESR1 (from UniProt P03372), the Kd is 104 nM in experiment [4] and 21 nM in experiment [5].
In the case of SRC-1(2) peptide, in experiment [1], the EC50 of 17β-estradiol for recruitment of the peptide stood at 5.08 nM and the EC50 of bisphenol-A for recruitment of the peptide was 32.3 nM.
In experiment [1], SRC-1(1) peptide yielded an EC50 of 17β-estradiol for recruitment of the peptide of 8.44 nM.
With `CC12CCC3c4ccc(O)cc4CCC3C1CCC2=NNC(=S)Nc1ccc2c(c1)C(=O)OC21c2ccc(O)cc2Oc2cc(O)ccc21` (stereo not shown) [Fl-E1], the Kd in experiment [6] amounted to 2.3 nM.

These data come from paper PMC4987164 (Comparative biochemistry and physiology. Part D, Genomics & …, 2016).
